From patent US20210030870A1 (STIPE THERAPEUTICS, published 2021) come the findings set out here.

For this experiment, the target named is T1, C-terminal STING (immobilized and purified) (Homo sapiens, UniProt Q86WV6 139-379).
T1 construct: only an unstated C-terminal part stood in the assay; also called immobilized C-terminal STING
As to the kind of experiment: SPR (Biacore); C-terminal STING immobilized on the sensor chip. On the technique in general: In SPR one partner is held on a chip, and binding of the other changes the refractive index at the surface.

T1 sequence (Q86WV6 139-379 limits assumed): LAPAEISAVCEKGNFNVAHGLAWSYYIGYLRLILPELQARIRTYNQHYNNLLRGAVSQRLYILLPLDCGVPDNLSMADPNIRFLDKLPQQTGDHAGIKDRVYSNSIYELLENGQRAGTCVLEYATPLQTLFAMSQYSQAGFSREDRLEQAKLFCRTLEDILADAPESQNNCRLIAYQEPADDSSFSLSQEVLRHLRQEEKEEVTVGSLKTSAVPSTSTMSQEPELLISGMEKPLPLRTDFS
Method: For the surface plasmon resonance (SPR) analyses, BlAcore sensor chips (type CMS; Biacore, Uppsala, SE) were activated with a 1:1 mixture of 0.2 M N-ethyl-N′-(3-dimethylaminopropyl) carbodiimide and 0.05 M N-hydroxysuccinimide in water according to the manufacturer. C-terminal STING was immobilized. The SPR signal from immobilized C-terminal STING generated BlAcore resonance units (RU) that were equivalent to 66 fmol/mm2. The flow cells were regenerated with 20 μl of 1.5 M glycine-HCI (pH 3.0). The flow buffer was 10 mM HEPES, 150 mM NaCl, 1.5 mM CaCl2, and 1 mM EGTA (pH 7.4). The binding data was analyzed using the BIAevaluation program. The number of ligands bound per immobilized receptor was estimated by dividing the ratio RU ligand/mass ligand with RU receptor/mass receptor. The Kd for binding was estimated using a BIA evaluation program.

B1: PEP301, PB1 domain fragment peptide of human P62 (peptide)
peptide: FSFCCSPEPEAEAEAAAGPGGRKKRRQRRRPQ
notes: also called Sp62-301; PB1-domain peptide PEP301
Molecule B1 came in with a Kd of 746 nM. In other words, the sub-micromolar range.

As a reminder, the Kd is the concentration at which binding is half-saturated.
